Measured values as given in paper PMC3248148, “Hsp90 can Accommodate the Simultaneous Binding of the FKBP52 and HOP Proteins” (Oncotarget, 2011).

Tests used:
[1] = biological target: the molecule itself; experiment: SEC; HiPrep Sephacryl S-200; each protein alone; 50mM Hepes, 150mM NaCl, 50mM KCl, 10mM MgCl2, 1mM DTT, pH 7.5; molecular weight interpolated from standards
[2] = biological target: T1, human Hsp90α (human, UniProt P07900 1-732); experiment: native gel or EMSA; 7.5% Native-PAGE, no detergents, reducing or denaturing agents in the gel buffers; mixtures incubated at 30°C for 60 minutes; with and without 5mM ATP, 20mM Na2MoO4; with and without 0.01% dodecyl-maltopyranoside; conditions: both partners purified
T1 construct: Hsp90α, human, expressed from pET28b-Hsp90α; Dimer by Sephacryl S-200 SEC; also called Hsp90 dimer; source: E. coli BL21 (DE3), purified (Ni2+ HisTrap, Q-Sepharose, Sephacryl S-200)

[3] = biological target: T1, human Hsp90α; experiment: co-IP; Hsp90α bait held on monoclonal Hsp90 (H90-10) antibody/Protein A-Sepharose beads; p23, FKBP52 and HOP added in the 2:1:2:2 molar ratios; 30°C, 60 minutes; without ATP, with 5mM ATP, 20mM Na2MoO4, and with ATP plus 0.01% dodecyl-maltopyranoside; SDS-PAGE; conditions: both partners purified

Binder | stoichiometry N [1] | stoichiometry N [2] | binding result [3]
human FKBP52 (52 kDa immunophilin FK506-binding protein) (natural protein, UniProt Q02790 1-459, looked up, FKBP52, human, expressed from pET28b-FKBP52; Dimer in solution by SEC and DLS; The gene is printed as Fkbp4, of the mouse; source: E. coli BL21 (DE3), purified (Ni2+ HisTrap, Q-Sepharose, Sephacryl S-200)) MTAEEMKATESGAQSAPLPMEGVDISPKQDEGVLKVIKREGTGTEMPMIGDRVFVHYTGWLLDGTKFDSSLDRKDKFSFDLGKGEVIKAWDIAIATMKVGEVCHITCKPEYAYGSAGSPPKIPPNATLVFEVELFEFKGEDLTEEEDGGIIRRIQTRGEGYAKPNEGAIVEVALEGYYKDKLFDQRELRFEIGEGENLDLPYGLERAIQRMEKGEHSIVYLKPSYAFGSVGKEKFQIPPNAELKYELHLKSFEKAKESWEMNSEEKLEQSTIVKERGTVYFKEGKYKQALLQYKKIVSWLEYESSFSNEEAQKAQALRLASHLNLAMCHLKLQAFSAAIESCNKALELDSNNEKGLFRRGEAHLAVNDFELARADFQKVLQLYPNNKAAKTQLAVCQQRIRRQLAREKKLYANMFERLAEEENKAKAEASSGDHPTDTEMKEEQKSNTAGSQSQVETEA | 2 | 0.5 FKBP52 per Hsp90 chain (1:2) | 
human p23 co-chaperone (natural protein, UniProt Q15185 1-160, looked up, p23 co-chaperone, human, untagged, expressed from pET23-p23; Eluted from Sephacryl S-200 as dimer and monomer; monomer by DLS; source: E. coli BL21 (DE3), purified (DEAE FF, Q-Sepharose, Sephacryl S-200)) MQPASAKWYDRRDYVFIEFCVEDSKDVNVNFEKSKLTFSCLGGSDNFKHLNEIDLFHCIDPNDSKHKRTDRSILCCLRKGESGQSWPRLTKERAKLNWLSVDFNNWKDWEDDSDEDMSNFDRFSEMMNNMGGDEDVDLPEVDGADDDSQDSDDEKMPDLE |  |  | binds
